Experimental data from article PMC8449271 (The Journal of Biological Chemistry, 2021).

B1: Cryptococcus neoformans AIRs single enzymatic unit (phosphoribosyl-aminoimidazole synthetase), recombinant His-tagged (domain or fragment)
chain: GFGGAFDLAKAGYKDPILVSGTDGVGTKLRVALDHGKHNTVGIDLVAMSVNDLIVQGAEPLYFLDYYACSKLDVPVAADVITGIAEGCLQAGCALIGGETAEMPGMYHGDDYDLAGFAVGVVERAQILPTPDIASGDVLLALSSSGPHSNGFSLIRKIVSLSNLSLHDTAPWDKNTSVGDALLTPTKVYIKPLLPGIKSGLYKGMSHITGGGFTENIPRIFSSASNLGVKLDLTSYSLPAIWKWLMRAGNVEAKEMVRTFNCGVGMIIIVAKDKADAALSSLKENGEEAWVIGEVQEKKGVEYVGLDKFGL
B2: Cryptococcus neoformans bifunctional GARs/AIRs (phosphoribosyl-glycinamide synthetase / phosphoribosyl-aminoimidazole synthetase), recombinant His-tagged (enzyme, UniProt J9VYP5 1-802, looked up)
chain: MPEITAFPQPKSDLSILLLGAGGREHALAFKLAQSSRVARIVVCPGNGGTALMGGKVSNLALPWGAPPAFRSIVEWAQKENIDLVVPGPEQPLVDGVEGAFKKVGIPVFGPSPAAAMLEGSKSLSKEFMARHNIPTAAFRSFTSTQYEDAVAYIKSKPFTSGRSVIKASGLAAGKGVLIPETDEEAFAALKSVMVDKEFGDAGDEVVVEEYLSGPEISVLAFSDGYTIVPMPAAQDHKRIGEGDTGLNTGGMGAYAPAPIATKEIMERCVKDVLEPTIKGMREDGYPFVGMLFTGFMITADGPRVLEYNVRFGDPETQALMLLLDEQTDLAEVLLACVERRLDSIKLGYKQGYAVSVVLASEGYPGSYPKGLPMTLNPTPEGVEVFHAGTKRSDNVTVTDGGRVLAVCASAPTLRAAVDLAYSGISQISFQGQTFRRDIAYRALSSEPPAEPKGLTYAAAGVSVDAGNDLVEAIKPVVKATRRPGADSDIGGFGGAFDLAKAGYKDPILVSGTDGVGTKLRVALDHGKHNTVGIDLVAMSVNDLIVQGAEPLYFLDYYACSKLDVPVAADVITGIAEGCLQAGCALIGGETAEMPGMYHGDDYDLAGFAVGVVERAQILPTPDIASGDVLLALSSSGPHSNGFSLIRKIVSLSNLSLHDTAPWDKNTSVGDALLTPTKVYIKPLLPGIKSGLYKGMSHITGGGFTENIPRIFSSASNLGVKLDLTSYSLPAIWKWLMRAGNVEAKEMVRTFNCGVGMIIIVAKDKADAALSSLKENGEEAWVIGEVQEKKGVEYVGLDKFGL
B3: Cryptococcus neoformans GARs single enzymatic unit (phosphoribosyl-glycinamide synthetase), recombinant His-tagged (domain or fragment)
chain: MPEITAFPQPKSDLSILLLGAGGREHALAFKLAQSSRVARIVVCPGNGGTALMGGKVSNLALPWGAPPAFRSIVEWAQKENIDLVVPGPEQPLVDGVEGAFKKVGIPVFGPSPAAAMLEGSKSLSKEFMARHNIPTAAFRSFTSTQYEDAVAYIKSKPFTSGRSVIKASGLAAGKGVLIPETDEEAFAALKSVMVDKEFGDAGDEVVVEEYLSGPEISVLAFSDGYTIVPMPAAQDHKRIGEGDTGLNTGGMGAYAPAPIATKEIMERCVKDVLEPTIKGMREDGYPFVGMLFTGFMITADGPRVLEYNVRFGDPETQALMLLLDEQTDLAEVLLACVERRLDSIKLGYKQGYAVSVVLASEGYPGSYPKGLPMTLNPTPEGVEVFHAGTKRSDNVTVTDGGRVLAVCASAPTLRAAVDLAYSGISQISFQGQTFRRDIAYRALSSEPPAEP

Molecular target: the molecule itself
Assay: mass photometry

Protein	stoichiometry N
B1	2
B2	2
B3	2
